Source: patent US20110118131A1 (published 2011)

T1: Ep-CAM (UniProt P16422 24-265, limits assumed)
T1 construct: Amine coupled to a CM5 chip in the Biacore assays
T1 sequence (looked up): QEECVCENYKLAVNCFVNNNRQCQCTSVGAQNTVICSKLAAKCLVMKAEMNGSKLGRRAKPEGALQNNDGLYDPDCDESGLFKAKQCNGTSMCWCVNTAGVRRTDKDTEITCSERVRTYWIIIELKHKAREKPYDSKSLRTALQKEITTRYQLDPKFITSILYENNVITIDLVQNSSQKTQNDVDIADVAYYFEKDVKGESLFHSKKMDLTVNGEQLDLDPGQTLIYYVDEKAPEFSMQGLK


Target: T1, Ep-CAM
Assay: Biacore, Fab periplasmic extract

| Binder | binding result | fold difference in affinity vs parental ING-1 [fold] |
| --- | --- | --- |
| ING-1 light chain E98S (Fab, V domains shown, Fab, periplasmic extract) VH: QIQLVQSGPELKKPGETVKISCKASGYTFTKYGMNWVKQAPGKGLKWMGWINTYTEEPTYGDDFKGRFAFSLETSASTANLQINNLKSEDTATYFCARFGSAVDYWGQGTSVTVSS VL: DIVMTQAAFSNPVTLGTSGSISCRSSKSLLHSNGITYLYWYLQKPGQSPQLLIYQMSNLASGVPDRFSSSGSGTDFTLRISRVEAEDVGVYYCAQNLSLPRTFGGGTKLEMKR | no binding | – |
| ING-1 light chain H31K (Fab, V domains shown, Fab, periplasmic extract) VH: QIQLVQSGPELKKPGETVKISCKASGYTFTKYGMNWVKQAPGKGLKWMGWINTYTEEPTYGDDFKGRFAFSLETSASTANLQINNLKSEDTATYFCARFGSAVDYWGQGTSVTVSS VL: DIVMTQAAFSNPVTLGTSGSISCRSSKSLLKSNGITYLYWYLQKPGQSPQLLIYQMSNLASGVPDRFSSSGSGTDFTLRISRVEAEDVGVYYCAQNLELPRTFGGGTKLEMKR | – | 0.05 |
| ING-1 light chain H31N (Fab, V domains shown, Fab, periplasmic extract) VH: QIQLVQSGPELKKPGETVKISCKASGYTFTKYGMNWVKQAPGKGLKWMGWINTYTEEPTYGDDFKGRFAFSLETSASTANLQINNLKSEDTATYFCARFGSAVDYWGQGTSVTVSS VL: DIVMTQAAFSNPVTLGTSGSISCRSSKSLLNSNGITYLYWYLQKPGQSPQLLIYQMSNLASGVPDRFSSSGSGTDFTLRISRVEAEDVGVYYCAQNLELPRTFGGGTKLEMKR | – | 0.5 |
| ING-1 light chain H31R (Fab, V domains shown, Fab, periplasmic extract) VH: QIQLVQSGPELKKPGETVKISCKASGYTFTKYGMNWVKQAPGKGLKWMGWINTYTEEPTYGDDFKGRFAFSLETSASTANLQINNLKSEDTATYFCARFGSAVDYWGQGTSVTVSS VL: DIVMTQAAFSNPVTLGTSGSISCRSSKSLLRSNGITYLYWYLQKPGQSPQLLIYQMSNLASGVPDRFSSSGSGTDFTLRISRVEAEDVGVYYCAQNLELPRTFGGGTKLEMKR | – | 0.06 |
| ING-1 light chain I35N (Fab, V domains shown, Fab, periplasmic extract) VH: QIQLVQSGPELKKPGETVKISCKASGYTFTKYGMNWVKQAPGKGLKWMGWINTYTEEPTYGDDFKGRFAFSLETSASTANLQINNLKSEDTATYFCARFGSAVDYWGQGTSVTVSS VL: DIVMTQAAFSNPVTLGTSGSISCRSSKSLLHSNGNTYLYWYLQKPGQSPQLLIYQMSNLASGVPDRFSSSGSGTDFTLRISRVEAEDVGVYYCAQNLELPRTFGGGTKLEMKR | – | 0.5 |
| ING-1 light chain K27E (Fab, V domains shown, Fab, periplasmic extract) VH: QIQLVQSGPELKKPGETVKISCKASGYTFTKYGMNWVKQAPGKGLKWMGWINTYTEEPTYGDDFKGRFAFSLETSASTANLQINNLKSEDTATYFCARFGSAVDYWGQGTSVTVSS VL: DIVMTQAAFSNPVTLGTSGSISCRSSESLLHSNGITYLYWYLQKPGQSPQLLIYQMSNLASGVPDRFSSSGSGTDFTLRISRVEAEDVGVYYCAQNLELPRTFGGGTKLEMKR | no binding | – |
| ING-1 light chain K27N (Fab, V domains shown, Fab, periplasmic extract) VH: QIQLVQSGPELKKPGETVKISCKASGYTFTKYGMNWVKQAPGKGLKWMGWINTYTEEPTYGDDFKGRFAFSLETSASTANLQINNLKSEDTATYFCARFGSAVDYWGQGTSVTVSS VL: DIVMTQAAFSNPVTLGTSGSISCRSSNSLLHSNGITYLYWYLQKPGQSPQLLIYQMSNLASGVPDRFSSSGSGTDFTLRISRVEAEDVGVYYCAQNLELPRTFGGGTKLEMKR | no binding | – |
| ING-1 light chain K27S (Fab, V domains shown, Fab, periplasmic extract) VH: QIQLVQSGPELKKPGETVKISCKASGYTFTKYGMNWVKQAPGKGLKWMGWINTYTEEPTYGDDFKGRFAFSLETSASTANLQINNLKSEDTATYFCARFGSAVDYWGQGTSVTVSS VL: DIVMTQAAFSNPVTLGTSGSISCRSSSSLLHSNGITYLYWYLQKPGQSPQLLIYQMSNLASGVPDRFSSSGSGTDFTLRISRVEAEDVGVYYCAQNLELPRTFGGGTKLEMKR | no binding | – |
| ING-1 light chain K27W (Fab, V domains shown, Fab, periplasmic extract) VH: QIQLVQSGPELKKPGETVKISCKASGYTFTKYGMNWVKQAPGKGLKWMGWINTYTEEPTYGDDFKGRFAFSLETSASTANLQINNLKSEDTATYFCARFGSAVDYWGQGTSVTVSS VL: DIVMTQAAFSNPVTLGTSGSISCRSSWSLLHSNGITYLYWYLQKPGQSPQLLIYQMSNLASGVPDRFSSSGSGTDFTLRISRVEAEDVGVYYCAQNLELPRTFGGGTKLEMKR | no binding | – |
| ING-1 light chain L29D (Fab, V domains shown, Fab, periplasmic extract) VH: QIQLVQSGPELKKPGETVKISCKASGYTFTKYGMNWVKQAPGKGLKWMGWINTYTEEPTYGDDFKGRFAFSLETSASTANLQINNLKSEDTATYFCARFGSAVDYWGQGTSVTVSS VL: DIVMTQAAFSNPVTLGTSGSISCRSSKSDLHSNGITYLYWYLQKPGQSPQLLIYQMSNLASGVPDRFSSSGSGTDFTLRISRVEAEDVGVYYCAQNLELPRTFGGGTKLEMKR | no binding | – |
| ING-1 light chain L29E (Fab, V domains shown, Fab, periplasmic extract) VH: QIQLVQSGPELKKPGETVKISCKASGYTFTKYGMNWVKQAPGKGLKWMGWINTYTEEPTYGDDFKGRFAFSLETSASTANLQINNLKSEDTATYFCARFGSAVDYWGQGTSVTVSS VL: DIVMTQAAFSNPVTLGTSGSISCRSSKSELHSNGITYLYWYLQKPGQSPQLLIYQMSNLASGVPDRFSSSGSGTDFTLRISRVEAEDVGVYYCAQNLELPRTFGGGTKLEMKR | no binding | – |
| ING-1 light chain L29F (Fab, V domains shown, Fab, periplasmic extract) VH: QIQLVQSGPELKKPGETVKISCKASGYTFTKYGMNWVKQAPGKGLKWMGWINTYTEEPTYGDDFKGRFAFSLETSASTANLQINNLKSEDTATYFCARFGSAVDYWGQGTSVTVSS VL: DIVMTQAAFSNPVTLGTSGSISCRSSKSFLHSNGITYLYWYLQKPGQSPQLLIYQMSNLASGVPDRFSSSGSGTDFTLRISRVEAEDVGVYYCAQNLELPRTFGGGTKLEMKR | no binding | – |
| ING-1 light chain L29Q (Fab, V domains shown, Fab, periplasmic extract) VH: QIQLVQSGPELKKPGETVKISCKASGYTFTKYGMNWVKQAPGKGLKWMGWINTYTEEPTYGDDFKGRFAFSLETSASTANLQINNLKSEDTATYFCARFGSAVDYWGQGTSVTVSS VL: DIVMTQAAFSNPVTLGTSGSISCRSSKSQLHSNGITYLYWYLQKPGQSPQLLIYQMSNLASGVPDRFSSSGSGTDFTLRISRVEAEDVGVYYCAQNLELPRTFGGGTKLEMKR | no binding | – |
| ING-1 light chain L29R (Fab, V domains shown, Fab, periplasmic extract) VH: QIQLVQSGPELKKPGETVKISCKASGYTFTKYGMNWVKQAPGKGLKWMGWINTYTEEPTYGDDFKGRFAFSLETSASTANLQINNLKSEDTATYFCARFGSAVDYWGQGTSVTVSS VL: DIVMTQAAFSNPVTLGTSGSISCRSSKSRLHSNGITYLYWYLQKPGQSPQLLIYQMSNLASGVPDRFSSSGSGTDFTLRISRVEAEDVGVYYCAQNLELPRTFGGGTKLEMKR | no binding | – |
| ING-1 light chain L29W (Fab, V domains shown, Fab, periplasmic extract) VH: QIQLVQSGPELKKPGETVKISCKASGYTFTKYGMNWVKQAPGKGLKWMGWINTYTEEPTYGDDFKGRFAFSLETSASTANLQINNLKSEDTATYFCARFGSAVDYWGQGTSVTVSS VL: DIVMTQAAFSNPVTLGTSGSISCRSSKSWLHSNGITYLYWYLQKPGQSPQLLIYQMSNLASGVPDRFSSSGSGTDFTLRISRVEAEDVGVYYCAQNLELPRTFGGGTKLEMKR | no binding | – |
